Laboratory results: article PMC4102767

Biological target: Slx4-S486A^3Flag (budding yeast), Q12098
Assay: affinity purification with mass spectrometry
Settings: remark: other sources report otherwise

Sequence of Slx4-S486A^3Flag (budding yeast), Q12098 (Q12098 whole entry S486A): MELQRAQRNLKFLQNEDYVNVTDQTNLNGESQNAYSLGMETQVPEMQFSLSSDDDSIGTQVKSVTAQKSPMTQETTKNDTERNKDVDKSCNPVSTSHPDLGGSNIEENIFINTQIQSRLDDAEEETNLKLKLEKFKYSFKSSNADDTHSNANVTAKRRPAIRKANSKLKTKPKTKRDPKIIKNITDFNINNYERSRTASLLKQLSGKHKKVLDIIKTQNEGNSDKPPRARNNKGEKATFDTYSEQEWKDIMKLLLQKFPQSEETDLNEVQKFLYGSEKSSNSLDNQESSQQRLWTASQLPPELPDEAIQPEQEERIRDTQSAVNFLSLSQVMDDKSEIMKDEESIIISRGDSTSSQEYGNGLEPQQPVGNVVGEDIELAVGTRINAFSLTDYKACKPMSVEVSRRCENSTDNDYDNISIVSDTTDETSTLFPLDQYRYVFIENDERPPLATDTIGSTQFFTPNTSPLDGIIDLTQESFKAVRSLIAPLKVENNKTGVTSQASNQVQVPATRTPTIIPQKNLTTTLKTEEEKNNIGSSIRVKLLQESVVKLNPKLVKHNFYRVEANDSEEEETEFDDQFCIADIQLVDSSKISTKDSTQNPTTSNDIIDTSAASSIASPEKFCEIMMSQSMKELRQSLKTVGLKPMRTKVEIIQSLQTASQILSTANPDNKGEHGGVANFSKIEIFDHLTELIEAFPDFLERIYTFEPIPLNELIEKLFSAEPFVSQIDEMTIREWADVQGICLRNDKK

B1: Dpb11, endogenous, P47027 1-764 (natural protein)
chain: MKPFQGITFCPTAINNEILAKKISKKIIKLGGIFSKDLTRQVNVLVVGSTTNTNKFKFAVKHRFDIIFIDIQAIDDIYQLWLSGENILPDSNTATMTGSTYEMLKILYRRFSFKYLHNFNIFIGRITDTNITSIDSLVRSIKKLGCSSYNYQNFVIKDTSSHNDDDDQGQNGQISIFVTDTLLGARVNAAIEQNIPIVHFKWILDCQKRSALLPYDPYYLLPNIKDLPYDSIGSNSCDCWDKINTTFPTNIDAQSSLQRQQSSSTLTPSLPKTSSLLNKFKPKGEKIWDKAMSLQQHSKTNFSVLGQSPLSINNKQEDLSDNSTLIFKNCAFIIHHIFPGNHRSILTKIVVQNGGKIETSYLSGIYDHSYYIIPSNKALDSFNDLPEIIDDNDGIVTEFFIERCLYYQKLLHPIDLWSKPFLSTIEFQVSSSSKLLHHEFSSSPFLNVTITGFSGVELLHLTKVLNLLKPMGINYVEYLNKSTDILLINLAALPSIPKTHPLWSNEFSDLFTQFCINNNNDDPGDNNRKDFQNNSILRNSMKRKIEYIKKFHSIPVVTPAFIFKLLSAASGENNEIFLNNIKWCIICPRGHKDDFKCKIKKPYYTSISSEKKYQNNDPKIDKTILLKRNNSSLSEHSMKDTKNELLQKIRETDSGRKKRSVSSSIMDVSSERQMPDTKRIKLESLPKNFVPKQIKRTTSWGTIMSENVPTEQPTAISNPEEIPRTEEVSHTQVTYGSIQDKKRTASLEKPMRRQTRNQTKELDS
In the case of B1, the fold reduction of binding against wild-type Slx4^3Flag is reported as 8 fold.
